Values of other authors as cited in patent US20160354395A1, “INFANT FORMULAS CONTAINING A 2-FUCOSYLATED OLIGOSACCHARIDE FOR TREATMENT OR PREVENTION OF INFLUENZA INFECTION” (NESTEC S.A., priority 2013, published 2016).

Test system: influenza virus
Settings: mice

B1: Lactoferrin: a protein of the transferrin family, present in milk; given in the diet at 25 g/kg (protein, UniProt P24627 20-708, looked up)
Lactotransferrin: APRKNVRWCTISQPEWFKCRRWQWRMKKLGAPSITCVRRAFALECIRAIAEKKADAVTLDGGMVFEAGRDPYKLRPVAAEIYGTKESPQTHYYAVAVVKKGSNFQLDQLQGRKSCHTGLGRSAGWIIPMGILRPYLSWTESLEPLQGAVAKFFSASCVPCIDRQAYPNLCQLCKGEGENQCACSSREPYFGYSGAFKCLQDGAGDVAFVKETTVFENLPEKADRDQYELLCLNNSRAPVDAFKECHLAQVPSHAVVARSVDGKEDLIWKLLSKAQEKFGKNKSRSFQLFGSPPGQRDLLFKDSALGFLRIPSKVDSALYLGSRYLTTLKNLRETAEEVKARYTRVVWCAVGPEEQKKCQQWSQQSGQNVTCATASTTDDCIVLVLKGEADALNLDGGYIYTAGKCGLVPVLAENRKSSKHSSLDCVLRPTEGYLAVAVVKKANEGLTWNSLKDKKSCHTAVDRTAGWNIPMGLIVNQTGSCAFDEFFSQSCAPGADPKSRLCALCAGDDQGLDKCVPNSKEKYYGYTGAFRCLAEDVGDVAFVKNDTVWENTNGESTADWAKNLNREDFRLLCLDGTRKPVTEAQSCHLAVAPNHAVVSRSDRAAHVKQVLLHQQALFGKNGKNCPDKFCLFKSETKNLLFNDNTECLAKLGGRPTYEEYLGTEYVTAIANLKKCSTSPLLEACAFLTR
- number of infiltrated leukocytes recovered from bronchoalveolar lavage fluid (day 6): significantly lower
- lung consolidation score (day 6 after infection, vs control mice given water): significantly lower
